Data as given in patent US5955420, “Rse receptor activation” (Genentech, Inc., dated 1999).

Biological target: CD4-IgG (human, UniProt P01730)
Assay: competition in the FBS-mediated CMK11-5 membrane binding assay
Description: After a 30 min incubation at room temperature, 1 ml of ice cold assay buffer was added to each tube. Then, the membrane associated radioactivity was collected by centrifugation for 4 min at 15000 g, separated from unbound radioactivity by aspiration of the supernatant fluid and counted in a γ counter.

- binding result: no binding
B1: Rse ligand (Rse-L) in fetal bovine serum, unpurified or Q-Sepharose enriched (ligand)
chain: ANTLLEETKKGNLERECIEELCNKEEAREIFENNPETEYFYPKYLGCLGSFRAGLFTAARLSTNAYPDLRSCVNAISDQCNPLPCNEDGFMTCKDGQATFTCICKSGWQGEKCESDINECKDPVNINGGCSQICENTPGSYHCSCKNGFVMLSNKKDCKDVDECVLKPSICGTAVCKNIPGDFECECAEGYKYNPVSKSCDDVDECAENLCAQLCVNYPGGYSCYCDGKKGFKLAQDQKSCEAVPVCLPLDLDKNYELLYLAEQFVGVVLYLKFRLPETTRFSAEFDFRTYDSEGVILYAESSDHSAWFLIALREGKIEIQFKNEKTTKMTTGGKVINDGLWHMVSVEELEQSISVKIAKEAVMNINKPGSLFKPTNGFLETKVYFAGVPRKMENALIRPINPRLDGCIRGWNLMNQGTSGVKEIIQEKQNKHCLVNVEKGSYYPGTGVAQFSINYKNESNPEAWQINVSLNIRPSAGTGVMLALVSDNTVPFALSLVDSATEKLQDILVSVESMVIGRIEAISLCSDQQTFLEIRVNRNNLELSTQLRKDSFHSEDFQRQFAILDEAMKGTVVTYLGGLPDVPFSATPVNAFYQGCMEVNINGVQVDLDEAISKHNDIRAHSCPSVWQKTKHT
